According to patent publication US20100260668A1 (published 2010):

B1: DVD476 (bispecific antibody, human IgG1, kappa)
heavy: not shown
light: DIQMTQSPSSLSASVGDRVTITCSASQDISNYLNWYQQKPGKAPKVLIYFTSSLHSGVPSRFSGSGSGTDFTLTISSLQPEDFATYYCQQYSTVPWTFGQGTKVEIKRTVAAPDIQMTQSPSSLSASVGDRVTITCRASQDVSTAVAWYQQKPGKAPKLLIYSASFLYSGVPSRFSGSGSGTDFTLTISSLQPEDFATTYYCQQSYTGTVTFGQGTKVEIKRTVAAPSVFIFPPSDEQLKSGTASVVCLLNNFYPREAKVQWKVDNALQSGNSQESVTEQDSKDSTYSLSSTLTLSKADYEKHKVYACEVTHQGLSSPVTKSFNRGEC
notes: DVD-Ig; HC long, LC short linker; also called DVD476H; DVD476L
B2: DVD524 (bispecific antibody, human IgG1, lambda)
heavy: not shown
light: DIQMTQSPSSLSASVGDRVTITCSASQDISNYLNWYQQKPGKAPKVLIYFTSSLHSGVPSRFSGSGSGTDFTLTISSLQPEDFATYYCQQYSTVPWTFGQGTKVEIKRTVAAPQAVVTQESALTTSPGETVTLTCRSSTGAVTTSNYANWVQEKPDHLFTGLIGGTNNRAPGVPARFSGSLIGDKAALTITGAQTEDEAIYFCALWYSNHWVFGGGTKLTVLGQPKAAPSVTLFPPSSEELQANKATLVCLISDFYPGAVTVAWKADSSPVKAGVETTTPSKQSNNKYAASSYLSLTPEQWKSHRSYSCQVTHEGSTVEKTVAPTECS
notes: DVD-Ig; HC long, LC short linker; also called DVD524H; DVD524L
B3: DVD500 (bispecific antibody, human IgG1, kappa)
heavy: not shown
light: DIQMTQSPSSLSASVGDRVTITCSASQDISNYLNWYQQKPGKAPKVLIYFTSSLHSGVPSRFSGSGSGTDFTLTISSLQPEDFATYYCQQYSTVPWTFGQGTKVEIKRTVAAPDIQMTQSSSYLSVSLGGRVTITCKASDHINNWLAWYQQKPGNAPRLLISGATSLETGVPSRFSGSGSGKDYTLSITSLQTEDVATYYCQQYWSIPLTFGAGTKLELKRTVAAPSVFIFPPSDEQLKSGTASVVCLLNNFYPREAKVQWKVDNALQSGNSQESVTEQDSKDSTYSLSSTLTLSKADYEKHKVYACEVTHQGLSSPVTKSFNRGEC
notes: DVD-Ig; HC long, LC short linker; also called DVD500H; DVD500L
B4: DVD480 (bispecific antibody, human IgG1, kappa)
heavy: not shown
light: DIQMTQSPSSLSASVGDRVTITCRASQVIRRSLAWYQQKPGKAPKLLIYAASNLASGVPSRFSGSGSGTDFTLTISSLQPEDFATYYCQQSNTSPLTFGQGTKVEIKRTVAAPDIQMTQSPSSLSASVGDRVTITCRASQDVSTAVAWYQQKPGKAPKLLIYSASFLYSGVPSRFSGSGSGTDFTLTISSLQPEDFATTYYCQQSYTGTVTFGQGTKVEIKRTVAAPSVFIFPPSDEQLKSGTASVVCLLNNFYPREAKVQWKVDNALQSGNSQESVTEQDSKDSTYSLSSTLTLSKADYEKHKVYACEVTHQGLSSPVTKSFNRGEC
notes: DVD-Ig; outer AB071 (VEGF), inner AB015 (DLL4); HC long, LC short linker; also called DVD480H; DVD480L
B5: DVD458 (bispecific antibody, human IgG1, kappa, L234A L235A)
heavy: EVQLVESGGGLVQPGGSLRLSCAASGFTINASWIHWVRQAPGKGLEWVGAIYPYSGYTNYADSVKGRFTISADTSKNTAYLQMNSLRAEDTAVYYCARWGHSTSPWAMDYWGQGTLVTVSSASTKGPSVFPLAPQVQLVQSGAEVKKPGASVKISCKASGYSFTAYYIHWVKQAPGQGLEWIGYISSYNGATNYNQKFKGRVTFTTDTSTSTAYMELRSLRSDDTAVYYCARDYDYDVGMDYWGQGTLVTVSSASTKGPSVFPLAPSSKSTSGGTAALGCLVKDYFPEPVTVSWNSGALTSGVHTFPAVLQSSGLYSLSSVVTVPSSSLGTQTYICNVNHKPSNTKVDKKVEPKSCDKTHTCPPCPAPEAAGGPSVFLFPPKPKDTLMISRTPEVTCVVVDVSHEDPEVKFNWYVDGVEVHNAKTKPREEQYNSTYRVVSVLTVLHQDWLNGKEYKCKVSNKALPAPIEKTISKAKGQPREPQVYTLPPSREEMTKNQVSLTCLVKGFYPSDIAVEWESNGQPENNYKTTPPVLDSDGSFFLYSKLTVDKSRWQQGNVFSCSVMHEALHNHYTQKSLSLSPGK
light: DIQMTQSPSSLSASVGDRVTITCRASQVIRRSLAWYQQKPGKAPKLLIYAASNLASGVPSRFSGSGSGTDFTLTISSLQPEDFATYYCQQSNTSPLTFGQGTKVEIKRTVAAPDIVMTQSPDSLAVSLGERATISCRASESVDNYGISFMKWFQQKPGQPPKLLIYAASNQGSGVPDRFSGSGSGTDFTLTISSLQAEDVAVYYCQQSKEVPWTFGGGTKVEIKRTVAAPSVFIFPPSDEQLKSGTASVVCLLNNFYPREAKVQWKVDNALQSGNSQESVTEQDSKDSTYSLSSTLTLSKADYEKHKVYACEVTHQGLSSPVTKSFNRGEC
notes: DVD-Ig; outer AB071 (VEGF), inner AB069 (DLL4); HC long, LC short linker; also called DVD458H; DVD458L
B6: DVD528 (bispecific antibody, human IgG1, lambda)
heavy: not shown
light: DIQMTQSPSSLSASVGDRVTITCRASQVIRRSLAWYQQKPGKAPKLLIYAASNLASGVPSRFSGSGSGTDFTLTISSLQPEDFATYYCQQSNTSPLTFGQGTKVEIKRTVAAPQAVVTQESALTTSPGETVTLTCRSSTGAVTTSNYANWVQEKPDHLFTGLIGGTNNRAPGVPARFSGSLIGDKAALTITGAQTEDEAIYFCALWYSNHWVFGGGTKLTVLGQPKAAPSVTLFPPSSEELQANKATLVCLISDFYPGAVTVAWKADSSPVKAGVETTTPSKQSNNKYAASSYLSLTPEQWKSHRSYSCQVTHEGSTVEKTVAPTECS
notes: DVD-Ig; outer AB071 (VEGF), inner AB073 (DLL4); HC long, LC short linker; also called DVD528H; DVD528L
B7: DVD504 (bispecific antibody, human IgG1, kappa)
heavy: not shown
light: DIQMTQSPSSLSASVGDRVTITCRASQVIRRSLAWYQQKPGKAPKLLIYAASNLASGVPSRFSGSGSGTDFTLTISSLQPEDFATYYCQQSNTSPLTFGQGTKVEIKRTVAAPDIQMTQSSSYLSVSLGGRVTITCKASDHINNWLAWYQQKPGNAPRLLISGATSLETGVPSRFSGSGSGKDYTLSITSLQTEDVATYYCQQYWSIPLTFGAGTKLELKRTVAAPSVFIFPPSDEQLKSGTASVVCLLNNFYPREAKVQWKVDNALQSGNSQESVTEQDSKDSTYSLSSTLTLSKADYEKHKVYACEVTHQGLSSPVTKSFNRGEC
notes: DVD-Ig; outer AB071 (VEGF), inner AB072 (DLL4); HC long, LC short linker; also called DVD504H; DVD504L
B8: DVD482 (bispecific antibody, human IgG1, kappa)
heavy: not shown
light: DIQMTQSPSSLSASVGDRVTITCSASQDISNYLNWYQQKPGKAPKVLIYFTSSLHSGVPSRFSGSGSGTDFTLTISSLQPEDFATYYCQQYSTVPWTFGQGTKVEIKRTVAAPSVFIFPPDIQMTQSPSSLSASVGDRVTITCRASQDVSTAVAWYQQKPGKAPKLLIYSASFLYSGVPSRFSGSGSGTDFTLTISSLQPEDFATTYYCQQSYTGTVTFGQGTKVEIKRTVAAPSVFIFPPSDEQLKSGTASVVCLLNNFYPREAKVQWKVDNALQSGNSQESVTEQDSKDSTYSLSSTLTLSKADYEKHKVYACEVTHQGLSSPVTKSFNRGEC
notes: DVD-Ig; HC short, LC long linker; also called DVD482H; DVD482L
B9: DVD530 (bispecific antibody, human IgG1, kappa, lambda, L234A L235A)
heavy: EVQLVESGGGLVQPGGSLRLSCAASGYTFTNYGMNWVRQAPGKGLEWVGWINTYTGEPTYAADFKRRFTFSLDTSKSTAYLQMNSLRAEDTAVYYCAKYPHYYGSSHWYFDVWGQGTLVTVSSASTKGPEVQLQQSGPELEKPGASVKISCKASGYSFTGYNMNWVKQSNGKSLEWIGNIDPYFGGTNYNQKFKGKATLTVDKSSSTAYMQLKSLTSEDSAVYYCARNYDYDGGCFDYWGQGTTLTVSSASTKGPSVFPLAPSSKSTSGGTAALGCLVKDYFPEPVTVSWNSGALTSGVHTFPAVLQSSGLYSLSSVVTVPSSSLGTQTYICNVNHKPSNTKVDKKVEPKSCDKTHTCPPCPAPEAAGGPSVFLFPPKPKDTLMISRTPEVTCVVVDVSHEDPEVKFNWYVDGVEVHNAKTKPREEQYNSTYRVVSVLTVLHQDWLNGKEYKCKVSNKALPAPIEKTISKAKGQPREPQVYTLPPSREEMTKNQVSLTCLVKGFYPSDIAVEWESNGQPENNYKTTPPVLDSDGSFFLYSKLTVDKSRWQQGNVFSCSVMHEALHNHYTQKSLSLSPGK
light: DIQMTQSPSSLSASVGDRVTITCSASQDISNYLNWYQQKPGKAPKVLIYFTSSLHSGVPSRFSGSGSGTDFTLTISSLQPEDFATYYCQQYSTVPWTFGQGTKVEIKRTVAAPSVFIFPPQAVVTQESALTTSPGETVTLTCRSSTGAVTTSNYANWVQEKPDHLFTGLIGGTNNRAPGVPARFSGSLIGDKAALTITGAQTEDEAIYFCALWYSNHWVFGGGTKLTVLGQPKAAPSVTLFPPSSEELQANKATLVCLISDFYPGAVTVAWKADSSPVKAGVETTTPSKQSNNKYAASSYLSLTPEQWKSHRSYSCQVTHEGSTVEKTVAPTECS
notes: DVD-Ig; HC short, LC long linker; also called DVD530H; DVD530L
B10: DVD470 (bispecific antibody, human IgG1, kappa)
heavy: not shown
light: B8 light
notes: DVD-Ig; HC long, LC long linker; also called DVD470H; DVD470L
B11: DVD518 (bispecific antibody, human IgG1, kappa, lambda)
heavy: not shown
light: B9 light
notes: DVD-Ig; HC long, LC long linker; also called DVD518H; DVD518L
B12: DVD494 (bispecific antibody, human IgG1, kappa)
heavy: not shown
light: DIQMTQSPSSLSASVGDRVTITCSASQDISNYLNWYQQKPGKAPKVLIYFTSSLHSGVPSRFSGSGSGTDFTLTISSLQPEDFATYYCQQYSTVPWTFGQGTKVEIKRTVAAPSVFIFPPDIQMTQSSSYLSVSLGGRVTITCKASDHINNWLAWYQQKPGNAPRLLISGATSLETGVPSRFSGSGSGKDYTLSITSLQTEDVATYYCQQYWSIPLTFGAGTKLELKRTVAAPSVFIFPPSDEQLKSGTASVVCLLNNFYPREAKVQWKVDNALQSGNSQESVTEQDSKDSTYSLSSTLTLSKADYEKHKVYACEVTHQGLSSPVTKSFNRGEC
notes: DVD-Ig; HC long, LC long linker; also called DVD494H; DVD494L
B13: DVD474 (bispecific antibody, human IgG1, kappa)
heavy: not shown
light: DIQMTQSPSSLSASVGDRVTITCRASQVIRRSLAWYQQKPGKAPKLLIYAASNLASGVPSRFSGSGSGTDFTLTISSLQPEDFATYYCQQSNTSPLTFGQGTKVEIKRTVAAPSVFIFPPDIQMTQSPSSLSASVGDRVTITCRASQDVSTAVAWYQQKPGKAPKLLIYSASFLYSGVPSRFSGSGSGTDFTLTISSLQPEDFATTYYCQQSYTGTVTFGQGTKVEIKRTVAAPSVFIFPPSDEQLKSGTASVVCLLNNFYPREAKVQWKVDNALQSGNSQESVTEQDSKDSTYSLSSTLTLSKADYEKHKVYACEVTHQGLSSPVTKSFNRGEC
notes: DVD-Ig; outer AB071 (VEGF), inner AB015 (DLL4); HC long, LC long linker; also called DVD474H; DVD474L
B14: DVD452 (bispecific antibody, human IgG1, kappa, L234A L235A)
heavy: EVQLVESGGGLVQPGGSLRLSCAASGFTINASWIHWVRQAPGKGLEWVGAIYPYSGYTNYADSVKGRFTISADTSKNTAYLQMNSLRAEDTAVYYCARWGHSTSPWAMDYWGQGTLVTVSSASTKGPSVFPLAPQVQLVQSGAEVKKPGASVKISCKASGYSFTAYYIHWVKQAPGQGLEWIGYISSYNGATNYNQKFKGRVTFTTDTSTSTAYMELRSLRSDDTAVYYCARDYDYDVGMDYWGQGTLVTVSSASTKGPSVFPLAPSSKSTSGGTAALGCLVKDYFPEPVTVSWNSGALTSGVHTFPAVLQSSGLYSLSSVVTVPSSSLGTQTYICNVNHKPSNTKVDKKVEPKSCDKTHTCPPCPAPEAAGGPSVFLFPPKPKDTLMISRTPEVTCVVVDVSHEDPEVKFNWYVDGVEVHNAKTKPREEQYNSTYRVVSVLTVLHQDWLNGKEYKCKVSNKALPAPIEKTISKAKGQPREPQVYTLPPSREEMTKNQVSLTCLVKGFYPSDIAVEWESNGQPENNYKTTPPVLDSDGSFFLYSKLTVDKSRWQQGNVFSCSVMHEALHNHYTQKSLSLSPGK
light: DIQMTQSPSSLSASVGDRVTITCRASQVIRRSLAWYQQKPGKAPKLLIYAASNLASGVPSRFSGSGSGTDFTLTISSLQPEDFATYYCQQSNTSPLTFGQGTKVEIKRTVAAPSVFIFPPDIVMTQSPDSLAVSLGERATISCRASESVDNYGISFMKWFQQKPGQPPKLLIYAASNQGSGVPDRFSGSGSGTDFTLTISSLQAEDVAVYYCQQSKEVPWTFGGGTKVEIKRTVAAPSVFIFPPSDEQLKSGTASVVCLLNNFYPREAKVQWKVDNALQSGNSQESVTEQDSKDSTYSLSSTLTLSKADYEKHKVYACEVTHQGLSSPVTKSFNRGEC
notes: DVD-Ig; outer AB071 (VEGF), inner AB069 (DLL4); HC long, LC long linker; also called DVD452H; DVD452L
B15: DVD522 (bispecific antibody, human IgG1, kappa, lambda, L234A L235A)
heavy: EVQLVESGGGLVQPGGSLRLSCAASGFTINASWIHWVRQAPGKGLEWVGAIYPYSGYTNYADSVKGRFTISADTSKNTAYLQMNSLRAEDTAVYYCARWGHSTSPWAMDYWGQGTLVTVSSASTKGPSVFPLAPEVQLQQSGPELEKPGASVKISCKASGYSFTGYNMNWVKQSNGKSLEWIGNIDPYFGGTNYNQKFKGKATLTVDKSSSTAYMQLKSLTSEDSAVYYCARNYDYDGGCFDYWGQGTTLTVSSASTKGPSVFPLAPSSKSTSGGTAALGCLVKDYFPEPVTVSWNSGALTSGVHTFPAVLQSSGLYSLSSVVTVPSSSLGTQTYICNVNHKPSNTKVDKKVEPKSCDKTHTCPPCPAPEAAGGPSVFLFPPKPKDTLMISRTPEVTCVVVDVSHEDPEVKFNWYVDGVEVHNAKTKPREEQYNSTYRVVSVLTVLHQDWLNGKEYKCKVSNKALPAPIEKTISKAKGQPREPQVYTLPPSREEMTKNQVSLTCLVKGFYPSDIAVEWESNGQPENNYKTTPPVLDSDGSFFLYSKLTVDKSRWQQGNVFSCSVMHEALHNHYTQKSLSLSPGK
light: DIQMTQSPSSLSASVGDRVTITCRASQVIRRSLAWYQQKPGKAPKLLIYAASNLASGVPSRFSGSGSGTDFTLTISSLQPEDFATYYCQQSNTSPLTFGQGTKVEIKRTVAAPSVFIFPPQAVVTQESALTTSPGETVTLTCRSSTGAVTTSNYANWVQEKPDHLFTGLIGGTNNRAPGVPARFSGSLIGDKAALTITGAQTEDEAIYFCALWYSNHWVFGGGTKLTVLGQPKAAPSVTLFPPSSEELQANKATLVCLISDFYPGAVTVAWKADSSPVKAGVETTTPSKQSNNKYAASSYLSLTPEQWKSHRSYSCQVTHEGSTVEKTVAPTECS
notes: DVD-Ig; outer AB071 (VEGF), inner AB073 (DLL4); HC long, LC long linker; also called DVD522H; DVD522L
B16: DVD498 (bispecific antibody, human IgG1, kappa)
heavy: not shown
light: DIQMTQSPSSLSASVGDRVTITCRASQVIRRSLAWYQQKPGKAPKLLIYAASNLASGVPSRFSGSGSGTDFTLTISSLQPEDFATYYCQQSNTSPLTFGQGTKVEIKRTVAAPSVFIFPPDIQMTQSSSYLSVSLGGRVTITCKASDHINNWLAWYQQKPGNAPRLLISGATSLETGVPSRFSGSGSGKDYTLSITSLQTEDVATYYCQQYWSIPLTFGAGTKLELKRTVAAPSVFIFPPSDEQLKSGTASVVCLLNNFYPREAKVQWKVDNALQSGNSQESVTEQDSKDSTYSLSSTLTLSKADYEKHKVYACEVTHQGLSSPVTKSFNRGEC
notes: DVD-Ig; outer AB071 (VEGF), inner AB072 (DLL4); HC long, LC long linker; also called DVD498H; DVD498L

The binders below were run against T1, DLL4 ECD/His tag (R&D 1506-D4-050) (UniProt Q9NR61 27-529) (assay: direct bind ELISA, DLL4 on plate; DLL4 VD C-term.; HC Long, LC Short).
T1 construct: extracellular domain; Bought antigen coated on the ELISA plate; not shown: His tag
B1 showed an EC50 of 0.3 nM.
Binder B2 has an EC50 of 0.22 nM.
Binder B3 has an EC50 of 0.57 nM.
Binder B4 has an EC50 of 0.6 nM.
B5 was tested, and the EC50 was 1.54 nM.
B6 showed an EC50 of 0.81 nM.
In the case of B7, the EC50 is reported as 0.53 nM.

Each binder was assayed against T1, DLL4 ECD/His tag (R&D 1506-D4-050) (assay: direct bind ELISA, DLL4 on plate; DLL4 VD C-term.; HC Short, LC Long).
For B8, the EC50 was 0.36 nM.
Binder B9 has an EC50 of 0.22 nM.

What follows are binders tested against T1, DLL4 ECD/His tag (R&D 1506-D4-050) (assay: direct bind ELISA, DLL4 on plate; DLL4 VD C-term.; HC Long, LC Long).
Protocol: Enzyme Linked Immunosorbent Assays to screen for antibodies that bind a desired target antigen were performed as follows. […] Plates were washed four times with PBS containing 0.02% Tween 20. Plates were blocked by the addition of 300 μL/well blocking solution (non-fat dry milk powder, various retail suppliers, diluted to 2% in PBS) for ½ hour at room temperature. Plates were washed four times after blocking with PBS containing 0.02% Tween 20.
Alternatively, one hundred microliters per well of 10 μg/ml of Histidine (His) tagged desired target antigen (R&D Systems, Minneapolis, Minn.) was added to ELISA plates coated with monoclonal mouse anti-polyHistidine antibody as described above and incubated for 1 hour at room temperature. Wells were washed four times with PBS containing 0.02% Tween 20.
One hundred microliters of antibody or DVD-Ig preparations diluted in blocking solution as described above was added to the desired target antigen plate or desired target antigen/FC fusion plate or the anti-polyHistidine antibody/His tagged desired target antigen plate prepared as described above and incubated for 1 hour at room temperature. Wells are washed four times with PBS containing 0.02% Tween 20.
With B10 the EC50 was 0.19 nM.
With B11 the EC50 was 5.9 nM.
For B12, the EC50 was 39.5 nM.
With B13 the EC50 was 0.57 nM.
With B14 the EC50 was 0.34 nM.
B15 gave an EC50 of 0.48 nM.
For B16, the EC50 was 0.45 nM.
